Reference: US20110288485A1, “MICRONEEDLE DEVICE” (HISAMITSU PHARMACEUTICAL CO., INC., priority 2008, published 2011)

Tests used:
[1] = Hairless rat in vivo absorption test by microneedles (parathyroid hormone)
Excerpt: (§1) Two types of microneedles made of a polylactic acid that differ in the length of the needle part (h: 300 μm and 500 μm) were used. The shape of either of these two types of microneedles was square pyramid, and the density of the microneedle was 400 needles/cm^2. Also, the area of either one of microneedle devices was 1 cm^2.
Firstly, the abdomen of a hairless rat was pierced with a microneedle device in which tips of the needles were coated with a similar coating liquid to Example 2 (30% human parathyroid hormone hPTH (1-34) (the product of Sichuan Unibiochem Co., Ltd.), 7.5% pullulan, and 0.1% Tween 20) by a similar technique to Example 1 by hand pushing, and the microneedle device was covered with a foam tape (the product of 3M Company) and left attached for six hours. Then, blood was collected over time (amount of blood collected 200 μL/times) to measure the serum hPTH concentration with a Rat PTH IRMA kit (the product of Immutopics International). Also, in a subcutaneous administration group, 0.2 mg/mL hPTH in physiological saline was prepared, 40 μL of which was subcutaneously administered to the back of a hairless rat, and the PTH concentration was similarly measured.

[2] = PTH/pullulan coating liquid: solubility evaluation and amount of PTH coated on microneedles (Example 9); assay type: physicochemical; conditions: 30% or 40% PTH solution with small amount of surfactant (Tween 20)
Protocol: In order to optimize a ratio between PTH (1-34) (the product of Sichuan Unibiochem Co., Ltd.) and a coating carrier, which is a water-soluble high molecular weight polymer, a study was conducted using PTH and a coating carrier (pullulan). […] The concentration of pullulan was adjusted based on the viscosity of the solution at the time of dissolving, and the range of the concentration of pullulan was set to 0 to 30% (w/w). It is to be noted that, as the pullulan, one recited in Japanese Pharmacopeia (the product of Hayashibara Biochemical Labs., Inc.) was used. Further, in order to increase the adhesiveness to the needles, a study was also conducted for the case in which a surfactant (Tween20, 0.1%) was added as shown in Table 7.
Evaluation of solubility of PTH was performed after adjusting each solution, and a coating liquid capable of adjusting a uniform solution was subjected to an operation for coating of microneedles made of a polylactic acid. Following the aforementioned method as a coating method, coating was performed only on the tip part of the needles with the use of a metal mask (only the needle part was coated using a metal mask having a diameter of the aperture: 220 μm and thickness: 100 μm).

[3] = Study on the addition amount of sucrose to PTH, stability of content (Example 7); assay type: physicochemical
Protocol: (§2) A medicinal unit sample for screening of a stabilizing agent was fully dried and enclosed in an aluminum packing material, sandwiched between silicon treated liners, with OZO (OZO kagakugiken Co., Ltd.). It was then stored at 25° C., 40° C., 50° C., and 60° C. to perform an acceleration test to conduct a stability test of the content over time (n=3). The content was returned to room temperature, and then extracted with 4 mL of an extraction liquid, followed by measurement by HPLC.
Other than this, the study was conducted in the same manner as the aforementioned Examples.

[4] = Study on drying time of a sucrose additive to PTH, stability of content (Example 8); assay type: physicochemical; conditions: 60° C.
Protocol: as §2
Using this solution, a drug solution unit was produced, and preservation qualities resulting from various drying times were examined under a nitrogen stream.

[5] = In vitro human skin penetration test by microneedles (parathyroid hormone); assay type: in vitro ADME; conditions: microneedles height 500 μm compared with 300 μm; 40 μg hPTH coated; attachment six hours
Excerpt: as §1
A coating liquid prepared according to the below-described technique (30% human parathyroid hormone hPTH (1-34) (the product of Sichuan Unibiochem Co., Ltd.), 7.5% pullulan, and 0.1% Tween 20) was coated on a microneedle device similarly to Example 1, and after piercing excised human skin with this microneedle device by finger pressing (2 kg/patch), the device and the skin were placed on an acrylic cell for sampling over time. As a receptor layer, physiological saline containing 0.01% benzalkonium chloride was used, and 1 mL of a receptor liquid collected per sampling time was measured by a gamma counter to calculate a PTH concentration. It is to be noted that a period of attachment of the microneedle device was set at six hours. The results of the sampling are as shown in the graph in FIG. 5.
(2) After coating microneedles with the coating solution prepared in (1), radiation of each pharmaceutical preparation was counted using a NaI counter to estimate the content of PTH coated on the needle part. […]

[6] = PTH storage method: acceleration stability test of the content, form of package and stabilizing agent (Example 6); assay type: physicochemical
Protocol: PTH was prepared at 40 mg/mL with water for injection, which was then dispensed to serve as a drug solution. It was further diluted to 20 mg/mL with water for injection before experiment, 20 μL of which was added dropwise to a microneedle base (400 μg/patch), which served as a medicinal unit.
as §2
Extraction liquid: a 0.01% benzalkonium chloride solution or 2% TMTDAB, 1% sodium chloride, and 10 mM acetic acid buffer
Detector: an ultraviolet absorptiometer (measurement wavelength: 220 nm)
Column temperature: 25° C.

Substance: human parathyroid hormone hPTH (1-34)
- initial rise in the blood concentration, reaching maximum blood concentration ([1]; microneedle device vs subcutaneous administration): more rapidly reached than subcutaneous administration
- amount of absorption (serum hPTH) ([1]; microneedle length 300 and 500 μm, attached six hours): increases in the amount of absorption dependent on the length of the microneedles
- amount of PTH attached by single coating operation [2]: ≥ 20 µg
- residual ratio (%) relative to the initial value ([3]; 40° C., 1W): 83.26 ± 0.57%
- residual ratio (%) relative to the initial value ([3]; 40° C., 4W): 92.82 ± 0.74%
- residual ratio (%) relative to the initial value ([3]; 50° C., 4W): 80.83 ± 4.57%
- residual ratio (%) relative to the initial value ([3]; 60° C., 4W): 76.55 ± 3.95%
- residual ratio (%) relative to the initial value ([4]; drying time 15 minutes, 1W): 85.35 ± 0.64%
- residual ratio (%) relative to the initial value ([4]; drying time 15 minutes, 4W): 75.43 ± 1.69%
- residual ratio (%) relative to the initial value ([4]; drying time 30 minutes, 1W): 85.53 ± 0.49%
- residual ratio (%) relative to the initial value ([4]; drying time 30 minutes, 4W): 73.10 ± 0.36%
- residual ratio (%) relative to the initial value ([4]; drying time 1 hour, 1W): 84.62 ± 0.72%
- residual ratio (%) relative to the initial value ([4]; drying time 1 hour, 4W): 75.56 ± 1.69%
- residual ratio (%) relative to the initial value ([4]; drying time 2 hours, 1W): 86.01 ± 1.07%
- residual ratio (%) relative to the initial value ([4]; drying time 2 hours, 4W): 73.93 ± 1.41%
- residual ratio (%) relative to the initial value ([4]; drying time 16 hours, 1W): 87.08 ± 0.72%
- residual ratio (%) relative to the initial value ([4]; drying time 16 hours, 4W): 72.71 ± 2.01%
- skin penetration property [5]: efficient drug delivery is made possible
- residual ratio (%) relative to the initial value ([6]; 40° C., 1W): 100.22 ± 0.53%
- residual ratio (%) relative to the initial value ([6]; 40° C., 2W): 97.64 ± 0.72%
- residual ratio (%) relative to the initial value ([6]; 40° C., 4W): 97.02 ± 0.65%
- residual ratio (%) relative to the initial value ([6]; 50° C., 1W): 94.65 ± 1.55%
- residual ratio (%) relative to the initial value ([6]; 50° C., 2W): 94.10 ± 2.25%
- residual ratio (%) relative to the initial value ([6]; 50° C., 4W): 84.26 ± 1.19%
- residual ratio (%) relative to the initial value ([6]; 60° C., 1W): 89.50 ± 1.11%
- residual ratio (%) relative to the initial value ([6]; 60° C., 2W): 88.22 ± 0.82%
- residual ratio (%) relative to the initial value ([6]; 60° C., 4W): 71.80 ± 1.94%
